Data set [1] concerns the molecule itself. Kind of data set: X-ray crystal structure; two SLAP2 helices in the asymmetric unit.
The target in a further data set is T1, CBL (47-357) A223R (UniProt P22681 47-357).
T1 construct: range 47-357; Point mutant within Duet-His-Δlinker-hSLAP2-CBL; also called A223R (CBL mutant)
T1 sequence (looked up): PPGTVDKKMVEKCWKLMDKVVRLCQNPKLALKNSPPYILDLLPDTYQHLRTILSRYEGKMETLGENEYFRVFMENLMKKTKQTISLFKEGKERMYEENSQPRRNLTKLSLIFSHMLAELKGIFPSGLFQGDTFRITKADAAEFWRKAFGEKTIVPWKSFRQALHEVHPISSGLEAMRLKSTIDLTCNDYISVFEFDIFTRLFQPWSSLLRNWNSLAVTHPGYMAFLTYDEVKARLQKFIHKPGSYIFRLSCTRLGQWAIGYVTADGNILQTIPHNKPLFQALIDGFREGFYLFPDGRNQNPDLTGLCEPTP
Put plainly: Ni-NTA co-purification, low salt (0.15 M NaCl), Coomassie SDS-PAGE. The method, then:
(§1) Cell pellets were resuspended in either high or low salt (as for high salt except 25 mM HEPEs pH 7.5, 150 mM NaCl) lysis buffer and purified as above on Ni-NTA agarose (Qiagen) with wash buffer (25 mM HEPEs pH 7.5, 150 mM NaCl, 2% glycerol, 20 mM imidazole, 10 mM βME). Bead slurry was mixed with SDS 2X loading buffer (125 mM Tris pH 6.8, 4% SDS, 20% glycerol, 0.715 M βME, bromophenol blue), boiled, and analyzed by 10 or 12.5% SDS-PAGE, stained with Coomassie blue.

Data set [2] deals with T2, CBL (47-357), co-expressed from pETDuet-1 MCS2 (UniProt P22681 47-357).
T2 construct: range 47-357; Untagged partner in the Duet co-purification trials; also called CBL TKBD
T2 sequence (looked up): T1 sequence (looked up) with R177A
Put plainly: Ni-NTA co-purification from Duet co-expression, high salt (0.5 M NaCl), Coomassie SDS-PAGE. On the procedure: as §1

The target of a further data set is T3, CBL (47-357) S226E (UniProt P22681 47-357).
T3 construct: range 47-357; Point mutant within Duet-His-Δlinker-hSLAP2-CBL; also called S226E (CBL mutant)
T3 sequence (looked up): T1 sequence (looked up) with R177A, S180E
Put plainly: Ni-NTA co-purification, low salt (0.15 M NaCl), Coomassie SDS-PAGE. On the procedure: as §1

Where a chain is given by its changes, count along the chain named.

B1: mouse SLAP2 (residues 28-259) (other, UniProt Q8R4L0 28-259, looked up)
chain: QPERHKVTAVALGSFPAGEQARLSLRLGEPLTIISEDGDWWTVQSEVSGREYHMPSVYVAKVAHGWLYEGLSREKAEELLLLPGNPGGAFLIRESQTRRGCYSLSVRLSRPASWDRIRHYRIQRLDNGWLYISPRLTFPSLHALVEHYSELADGICCPLREPCVLQKLGPLPGKDTPPPVTVPTSSLNWKKLDRSLLFLEAPASGEASLLSEGLRESLSSYISLAEDPLDDA
notes: range 28-259; Trx-His(6) tag removed with thrombin; In the crystal only residues 237-255 are seen; also called mSLAP2; Trx-His(6)-mSLAP2 (before thrombin cleavage)
Turning to B1, the binding result in data set [1] is listed as “binds”.

B2: Trx-His(6)-Δlinker-hSLAP2 L241R (other)
chain: EAERSKATAVALGSFPAGGPAELSLRLGEPLTIVSEDGDWWTVLSEVSGREYNIPSVHVAKVSHGWLYEGLSREKAEELLLLPGNPGGAFLIRESQTRRGSYSLSVRLSRPASWDRIRHYRIHCLDNGWLYISPRLTFPSLQALVDHYSELADDICCLLKEPCVLQRAGPLPGKDIPLPVTVQRTPLNWKELDSSLLFSEAATGEESLLSEGRRESLSFYISLNDEAVSLDDA
notes: Point mutant within Duet-His-Δlinker-hSLAP2-CBL; not shown: N-terminal thioredoxin (Trx)-His(6)-TEV-site tag and linker of the modified pET32a (Δlinker version)
Consider B2, for which the binding result (with CBL (47-357) A223R; in data set [2]) was “no binding” throughout.

B3: Trx-His(6)-Δlinker-hSLAP2 L245P (other)
chain: B2 chain with R213L, L217P
notes: Point mutant within Duet-His-Δlinker-hSLAP2-CBL; not shown: N-terminal Trx-His(6)-TEV site fusion of the modified pET32a (Δlinker form)
As to B3, the binding result in data set [2] is listed as “no binding”.

B4: Trx-His(6)-Δlinker-hSLAP2 S244E (other)
chain: B2 chain with R213L, S216E
notes: as for B2
As to B4, in the data set with CBL (47-357) S226E, the binding result is recorded as “no binding”.

The values are drawn from patent US20230212239A1, “INHIBITORS OF CBL AUTOINHIBITION AND RELATED METHODS” (THE HOSPITAL FOR SICK CHILDREN, priority 2020, published 2023).
